Reference: patent US20180155451A1 (published 2018)

T1: FcγRIIb extracellular domain with C-terminal His tag (human, UniProt P31994 43-217)
T1 construct: extracellular domain; also called FcgRIIb; 2b; not shown: His tag at the C terminus
T1 sequence (looked up): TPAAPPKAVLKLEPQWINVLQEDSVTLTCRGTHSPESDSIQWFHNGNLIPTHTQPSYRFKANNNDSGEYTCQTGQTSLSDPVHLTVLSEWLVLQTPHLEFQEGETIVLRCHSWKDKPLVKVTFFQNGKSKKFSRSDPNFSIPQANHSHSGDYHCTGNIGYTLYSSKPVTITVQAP

B1: GpH7-A5/GpH7-B3 variant P238_03V/GpL16-k0 (heterodimerized antibody, He Ab) (antibody, human IgG1, kappa)
heavy 1: not shown
heavy 2: not shown
light: DIVMTQSPLSLPVTPGEPASISCQASESLVHSNRNTYLHWYLQKPGQSPQLLIYKVSNRFSGVPDRFSGSGSGTDFTLKISRVEAEDVGVYYCSQNTHVPPTFGQGTKVEIERTVAAPSVFIFPPSDEQLKSGTASVVCLLNNFYPREAKVQWKVDNALQSGNSQESVTEQDSKDSTYSLSSTLTLSKADYEKHKVYACEVTHQGLSSPVTKSFNRGEC
notes: Anti-glypican-3 IgG1; the alteration is in the GpH7-B3 chain only; also called P238V
B2: GpH7-A5/GpH7-B3 variant G236_18N/GpL16-k0 (heterodimerized antibody, He Ab) (antibody, human IgG1, kappa)
heavy 1: not shown
heavy 2: not shown
light: B1 light
notes: Anti-glypican-3 IgG1; the alteration is in the GpH7-B3 chain only; also called G236N
B3: GpH7-A5/GpH7-B3 variant G237_10E/GpL16-k0 (heterodimerized antibody, He Ab) (antibody, human IgG1, kappa)
heavy 1: not shown
heavy 2: not shown
light: B1 light
notes: Anti-glypican-3 IgG1; the alteration is in the GpH7-B3 chain only; also called G237E
B4: GpH7-A5/GpH7-B3 variant P238_08L/GpL16-k0 (heterodimerized antibody, He Ab) (antibody, human IgG1, kappa)
heavy 1: not shown
heavy 2: not shown
light: B1 light
notes: Anti-glypican-3 IgG1; the alteration is in the GpH7-B3 chain only; also called P238L
B5: GpH7-A5/GpH7-B3 variant P238_12R/GpL16-k0 (heterodimerized antibody, He Ab) (antibody, human IgG1, kappa)
heavy 1: not shown
heavy 2: not shown
light: B1 light
notes: Anti-glypican-3 IgG1; the alteration is in the GpH7-B3 chain only; also called P238R
B6: GpH7-A5/GpH7-B3 variant G237_15Y/GpL16-k0 (heterodimerized antibody, He Ab) (antibody, human IgG1, kappa)
heavy 1: not shown
heavy 2: not shown
light: B1 light
notes: Anti-glypican-3 IgG1; the alteration is in the GpH7-B3 chain only; also called G237Y
B7: GpH7-A5/GpH7-B3 variant G237_08L/GpL16-k0 (heterodimerized antibody, He Ab) (antibody, human IgG1, kappa)
heavy 1: not shown
heavy 2: not shown
light: B1 light
notes: Anti-glypican-3 IgG1; the alteration is in the GpH7-B3 chain only; also called G237L
B8: GpH7-A5/GpH7-B3 variant P238_06M/GpL16-k0 (heterodimerized antibody, He Ab) (antibody, human IgG1, kappa)
heavy 1: not shown
heavy 2: not shown
light: B1 light
notes: Anti-glypican-3 IgG1; the alteration is in the GpH7-B3 chain only; also called P238M
B9: GpH7-A5/GpH7-B3 variant P238_20W/GpL16-k0 (heterodimerized antibody, He Ab) (antibody, human IgG1, kappa)
heavy 1: not shown
heavy 2: not shown
light: B1 light
notes: Anti-glypican-3 IgG1; the alteration is in the GpH7-B3 chain only; also called P238W
B10: GpH7-A5/GpH7-B3 variant L234_09D/GpL16-k0 (heterodimerized antibody, He Ab) (antibody, human IgG1, kappa)
heavy 1: not shown
heavy 2: not shown
light: B1 light
notes: Anti-glypican-3 IgG1; the alteration is in the GpH7-B3 chain only; also called L234D
B11: GpH7-A5/GpH7-B3 variant L235_16H/GpL16-k0 (heterodimerized antibody, He Ab) (antibody, human IgG1, kappa)
heavy 1: not shown
heavy 2: not shown
light: B1 light
notes: Anti-glypican-3 IgG1; the alteration is in the GpH7-B3 chain only; also called L235H
B12: GpH7-A5/GpH7-B3 variant G237_05P/GpL16-k0 (heterodimerized antibody, He Ab) (antibody, human IgG1, kappa)
heavy 1: not shown
heavy 2: not shown
light: B1 light
notes: Anti-glypican-3 IgG1; the alteration is in the GpH7-B3 chain only; also called G237P
B13: GpH7-A5/GpH7-B3 variant L235_04F/GpL16-k0 (heterodimerized antibody, He Ab) (antibody, human IgG1, kappa)
heavy 1: not shown
heavy 2: not shown
light: B1 light
notes: Anti-glypican-3 IgG1; the alteration is in the GpH7-B3 chain only; also called L235F
B14: GpH7-A5/GpH7-B3 variant P238_15Y/GpL16-k0 (heterodimerized antibody, He Ab) (antibody, human IgG1, kappa)
heavy 1: not shown
heavy 2: not shown
light: B1 light
notes: Anti-glypican-3 IgG1; the alteration is in the GpH7-B3 chain only; also called P238Y
B15: GpH7-A5/GpH7-B3 variant L235_09D/GpL16-k0 (heterodimerized antibody, He Ab) (antibody, human IgG1, kappa)
heavy 1: not shown
heavy 2: not shown
light: B1 light
notes: Anti-glypican-3 IgG1; the alteration is in the GpH7-B3 chain only; also called L235D
B16: GpH7-A5/GpH7-B3 variant P238_02A/GpL16-k0 (heterodimerized antibody, He Ab) (antibody, human IgG1, kappa)
heavy 1: not shown
heavy 2: not shown
light: B1 light
notes: Anti-glypican-3 IgG1; the alteration is in the GpH7-B3 chain only; also called P238A
B17: GpH7-A5/GpH7-B3 variant L235_15Y/GpL16-k0 (heterodimerized antibody, He Ab) (antibody, human IgG1, kappa)
heavy 1: not shown
heavy 2: not shown
light: B1 light
notes: Anti-glypican-3 IgG1; the alteration is in the GpH7-B3 chain only; also called L235Y
B18: GpH7-A5/GpH7-B3 variant P238_01G/GpL16-k0 (heterodimerized antibody, He Ab) (antibody, human IgG1, kappa)
heavy 1: not shown
heavy 2: not shown
light: B1 light
notes: Anti-glypican-3 IgG1; the alteration is in the GpH7-B3 chain only; also called P238G
B19: GpH7-A5/GpH7-B3 variant G237_09D/GpL16-k0 (heterodimerized antibody, He Ab) (antibody, human IgG1, kappa)
heavy 1: not shown
heavy 2: not shown
light: B1 light
notes: Anti-glypican-3 IgG1; the alteration is in the GpH7-B3 chain only; also called G237D
B20: GpH7-A5/GpH7-B3 variant G237_20W/GpL16-k0 (heterodimerized antibody, He Ab) (antibody, human IgG1, kappa)
heavy 1: not shown
heavy 2: not shown
light: B1 light
notes: Anti-glypican-3 IgG1; the alteration is in the GpH7-B3 chain only; also called G237W
B21: GpH7-A5/GpH7-B3 variant G236_11K/GpL16-k0 (heterodimerized antibody, He Ab) (antibody, human IgG1, kappa)
heavy 1: not shown
heavy 2: not shown
light: B1 light
notes: Anti-glypican-3 IgG1; the alteration is in the GpH7-B3 chain only; also called G236K

Target: T2, FcγRIIIa extracellular domain with C-terminal His tag (human, UniProt P08637 17-208)
T2 construct: extracellular domain; also called FcgRIIIa; 3a; not shown: His tag at the C terminus
T2 sequence (P08637 17-208): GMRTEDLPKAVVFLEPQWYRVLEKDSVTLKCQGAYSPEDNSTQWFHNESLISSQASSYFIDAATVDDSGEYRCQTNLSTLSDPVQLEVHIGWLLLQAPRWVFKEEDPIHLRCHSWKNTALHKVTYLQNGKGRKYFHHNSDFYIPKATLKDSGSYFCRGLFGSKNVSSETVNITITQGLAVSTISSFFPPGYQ
Assay: SPR (Biacore), captured antibody, FcγR as analyte; relative to GpH7-A5/GpH7-B3/GpL16-k0 = 100
Method: (§1) Analysis of interaction between objective antibody and the FcγR was carried out using Biacore T100 (GE Healthcare). HBS-EP+ (GE Healthcare) was used as the running buffer, and the measurement temperature was set to 25° C. Chips produced by immobilizing the antigen peptide by the amine coupling method to a Series S Sencor Chip CM5 (GE Healthcare), or alternatively, chips produced by allowing preliminarily biotinylated antigen peptides to interact with and immobilize onto a Series S Sensor Chip SA (certified) (GE Healthcare) were used. Antibodies of interest were captured onto an antigen peptide-immobilized chip, and allowed to interact to each FcγR diluted with running buffer. To regenerate and repeatedly use the chip, the antibodies captured on the chip were washed off by reacting 10 mM glycine-HCl, pH 1.5.
(§2) The FcγR-binding activity of each antibody was assessed primarily using as an indicator the FcγR-binding activity and dissociation constant for FcγR.

Row | He/Con_3a (IIIa binding) | Binder
1 | 43.8 % of HeCon Ab | B1
2 | 37.8 % of HeCon Ab | B2
3 | 25.4 % of HeCon Ab | B3
4 | 75.5 % of HeCon Ab | B4
5 | 12.2 % of HeCon Ab | B5
6 | 22.1 % of HeCon Ab | B6
7 | 24.9 % of HeCon Ab | B7
8 | 30.5 % of HeCon Ab | B8
9 | 49.7 % of HeCon Ab | B9
10 | 117 % of HeCon Ab | B10
11 | 59.1 % of HeCon Ab | B11
12 | 10.9 % of HeCon Ab | B12
13 | 79.1 % of HeCon Ab | B13
14 | 64.5 % of HeCon Ab | B14
15 | 91.6 % of HeCon Ab | B15
16 | 31.4 % of HeCon Ab | B16
17 | 80.6 % of HeCon Ab | B17
18 | 33 % of HeCon Ab | B18
19 | 17.7 % of HeCon Ab | B19
20 | 19.7 % of HeCon Ab | B20
21 | 18.6 % of HeCon Ab | B21

Target: T1, FcγRIIb extracellular domain with …
Assay: as above
Method: as §1, §2

Row | He/Con_2b (IIb binding) | Binder
22 | 120 % of HeCon Ab | B1
23 | 96.4 % of HeCon Ab | B2
24 | 114 % of HeCon Ab | B3
25 | 204 % of HeCon Ab | B4
26 | 51.4 % of HeCon Ab | B5
27 | 152 % of HeCon Ab | B6
28 | 148 % of HeCon Ab | B7
29 | 174 % of HeCon Ab | B8
30 | 123 % of HeCon Ab | B9
31 | 150 % of HeCon Ab | B10
32 | 76.9 % of HeCon Ab | B11
33 | 24.6 % of HeCon Ab | B12
34 | 118 % of HeCon Ab | B13
35 | 218 % of HeCon Ab | B14
36 | 106 % of HeCon Ab | B15
37 | 57.4 % of HeCon Ab | B16
38 | 149 % of HeCon Ab | B17
39 | 56 % of HeCon Ab | B18
40 | 223 % of HeCon Ab | B19
41 | 193 % of HeCon Ab | B20
42 | 49.8 % of HeCon Ab | B21
